From PMC10948360, “Tropomyosin 1-I/C coordinates kinesin-1 and dynein motors during oskar mRNA transport” (Nature Structural & Molecular Biology, 2024) come the findings set out here.

In assay [1] the target is T1, Khc motor domain (Khc 1-365) (Drosophila, UniProt P17210 1-365).
T1 construct: Kinesin heavy chain (Khc), Drosophila, amino acids 1-365 (motor domain); GST removal with 3C protease is stated for NMR; for the pull-down the prey is printed as Khc 1–365 without GST; source: E. coli BL21-CodonPlus(DE3)-RIL, purified (GSTrap, SEC)
T1 sequence (looked up): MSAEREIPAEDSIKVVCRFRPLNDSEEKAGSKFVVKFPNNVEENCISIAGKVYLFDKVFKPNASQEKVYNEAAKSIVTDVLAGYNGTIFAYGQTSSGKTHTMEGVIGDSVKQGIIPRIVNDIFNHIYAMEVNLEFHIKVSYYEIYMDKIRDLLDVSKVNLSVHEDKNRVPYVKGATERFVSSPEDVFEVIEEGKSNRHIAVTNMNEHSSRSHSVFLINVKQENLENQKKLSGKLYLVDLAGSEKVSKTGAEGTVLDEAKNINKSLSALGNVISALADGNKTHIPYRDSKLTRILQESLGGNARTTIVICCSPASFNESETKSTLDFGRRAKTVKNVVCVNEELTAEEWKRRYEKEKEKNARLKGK
Nature of the assay: pull-down; GST-Khc 855–975 (5 or 10 µM) as bait on glutathione Sepharose, 50 µM Khc 1–365 as prey, Tm1 1–335 at 5 to 15 µM; GF150 buffer, 4 °C. The settings on record: both partners purified.

Assay [2] addresses T1, Khc motor domain (Khc 1-365). Nature of the assay: NMR titration; 1H-15N HSQC of 50 µM 15N-labeled Khc 855–975 at 298 K, 25 mM NaPO4 pH 6.5, 150 mM NaCl; unlabeled partners added, with or without U10 RNA. The settings on record: both partners purified.

B1: GST-Khc 855-975 (domain or fragment)
chain: not shown
B1: in assay [1], the binding result is listed as “binds”.

B2: Khc tail (Khc 855-975) (domain or fragment)
chain: not shown
notes: 15N-labeled (13C,15N for assignment) in the NMR experiments; used unlabeled in microtubule pelleting; also called tail domain
As to B2, in assay [2], the binding result is on record as “binds”.
